# Assay results taken from patent US20160152995A1, “METHODS AND COMPOSITIONS TO IMPROVE THE SPREAD OF CHEMICAL SIGNALS IN PLANTS” (PIONEER HI-BRED INTERNATIONAL, INC., priority 2013, published 2016).
# Positions count from the first letter of the chain named.
# B1: L8-3E05 (protein)
# chain: MARLDKSKVINSALELLNEVGIEGLTTRKLAQKLGVEQPTLYWHVKNKRALLDALAIEMMDRHQTHYCPLEGESWQDFLRNNAKSLRCALLSHRDGAKVCLGTRWTEQQYESAENMLAFLTQQGFSLENALYALQAVRIFTLGCVLFDQESQVAKEERETPTTDSMPPLLRQAWELKDHQGAEPAFLFGLELIIRGLEKQLKRESGS
# modifications: Sulfonylurea responsive repressor
# B2: L8-3A06 (protein)
# chain: B1 chain with C68L, L86C, C88N, L134V, Q135S, I139V, C144A, R195S
# modifications: Sulfonylurea responsive repressor
# B3: L8-3A05 (protein)
# chain: B1 chain with C68S, L86C, C88N, L134V, Q135S, I139V, C144A, R195S, R203S
# modifications: Sulfonylurea responsive repressor
# B4: L8-2H01 (protein)
# chain: B1 chain with C68S, L86C, C88R, Q135E, I139V, C144A
# modifications: Sulfonylurea responsive repressor
# B5: L8-3B03 (protein)
# chain: B1 chain with C68L, L86C, C88R, L134V, Q135S, I139V, C144A, R203S
# modifications: Sulfonylurea responsive repressor
# B6: L8-3A04 (protein)
# chain: B1 chain with C68S, L86C, C88R, L134V, Q135S, I139V, C144A, S205C
# modifications: Sulfonylurea responsive repressor
# B7: L8-1A05 (protein)
# chain: B1 chain with C68S, L86C, C88R, L134V, Q135D, I139V, C144A, R195A, R203A
# modifications: Sulfonylurea responsive repressor
# B8: L8-3A07 (protein)
# chain: B1 chain with C68S, L86M, L134V, Q135S, I139V, C144W, R195A
# modifications: Sulfonylurea responsive repressor
# B9: L8-1E04 (protein)
# chain: B1 chain with C68L, L86C, C88N, L134V, Q135S, I139V, C144A, F147Y, R203A
# modifications: Sulfonylurea responsive repressor
# B10: L8-1A06 (protein)
# chain: B1 chain with C68S, L86C, C88R, L90V, L134V, Q135S, I139V, C144A, R195A
# modifications: Sulfonylurea responsive repressor
# B11: L8-3F08 (protein)
# chain: B1 chain with C68S, L86C, C88N, C100V, L131M, Q135E, V137A, C144W, R203S
# modifications: Sulfonylurea responsive repressor
# B12: L8-1A03 (protein)
# chain: B1 chain with C68S, L86C, C88N, Q135D, I139V, C144A, R195A
# modifications: Sulfonylurea responsive repressor
# B13: CsL4.2-15: top CsR hit of library CsL4.2 (protein)
# chain: MARLDKSKVINSALELLNEVGIEGLTTRKLAQKLGVEQPTLYWHVKNKRALLDALAIEMHDRHQTHYLPLEGESWQDFLRNFAKSMRRALLSHRDGAKVSLGTRWTEQQYETAENMLAFLTQQGFSLENALYATDAVRVFTLGAVLLDQEQQVAKEERETPTTDSMPPLLRQAWELKVHQGAEPAFLFGLELIIAGLEKQLKRESGS
# modifications: Sulfonylurea responsive repressor
# Tested on: E. coli assay strain Km3
# Test: not given
# Assay type: cell-based
# Conditions: library L8 hits; M9 Xgal colony assay; 200 ppb Chlorsulfuron; 24 hrs
# Description: Library L6 was assembled, rescued, ligated into pVER7314, transformed into E. coli KM3 and plated out onto LB carbenicillin/kanamycin, and carbenicillin only control media as before. Library plates were then picked into 42 384-well microtiter plates (˜16,000 clones) containing 60 μl LB carbenicillin (Cb) broth per well. After overnight growth at 37° C. the cultures were stamped onto M9 assay plates containing no inducer, 0.2 ppm, and 2.0 ppm chlorsulfuron as test inducer. Following incubation at 30° C. for ˜48 hrs, putative hits responding to chlorsulfuron treatment as determined by increased blue colony color were re-arrayed into six 96-well microtiter plates and used to stamp a fresh set of M9 assay plates to confirm the above results. For a more detailed analysis of the relative induction by chlorsulfuron, digital photographs were taken of the plates after various time points of incubation at 30° C. and colony color intensity measured using the digital image analysis freeware program ImageJ (Rasband, US National Institutes of Health, Bethesda, Md., USA, rsb.info.nih.gov/ij/, 1997-2007). […] From this analysis sequence-activity relationships were derived. […] Briefly, C at position 100, and Q at positions 108 and 109 strongly correlated with activation, while R at position 138, L at position 170, and A or G at position 173 were highly preferred in clones with the lowest background activity. […] This information will aid in the design of further libraries to improve responsiveness to chlorsulfuron.
# Library L8 construction and screening. Fourth round shuffling incorporated the best diversity from Rd3 shuffling (BB1860) as well as computational diversity (Table 14). As diversity was very high the library oligo mix was spiked into the parental hit variant oligo mix (5, 10, and 25% mixes) to titer down the number of residue changes per clone. In addition, to varying residues for Cs activity, seven residues (C68, C86, C88, C121, C144, C195, and C203) were varied with TetR family phylogenetic substitutions in an attempt to reduce the number of cysteine residues in the repressor. The PCR assembled libraries were cloned Sac1/Asc1 into pVER7334. This plasmid encodes PBAD promoter controlled expression of a plant optimized TetR DNA binding domain fused to the wt ligand binding domain of TetR(B) encoded by native Tn10 sequence on a Sac1 to Asc1 fragment. Approximately 15,000 clones were screened for blue colony color on the M9 Xgal assay plates +/−200 ppb Chlorsulfuron (Cs). Clones were ranked by ratio of color with inducer after 24 hrs incubation over colony color without inducer for 48 hrs of incubation. The sequence trend in the overall larger population of hits (first re-array) was that L55, R104, W105 and L170 were maintained while the C144A substitution was highly preferred. Sequence trends within the hit population were then noted with respect to repression, induction and fold induction (which corrects for leakiness).
# Mutagenesis reactions were transformed into library strain Km3 and 96 colonies tested for substitution by DNA sequence analysis. Substitutions representing each possible residue at each position were then re-arrayed in triplicate onto M9 X-gal assay plates with 0, 20 and 200 ppb Chlorsulfuron. Plates were incubated at 37° C. for 24 and 48 hrs prior to imaging. Residue substitutions were then ranked by activation (emphasis on 20 ppb Cs) and repression characteristics (emphasis on 48 hr time point). The mutation with the greatest impact on activity was substitution of residue N82 to phenylalanine or tyrosine. […] All other preferred substitutions shown in Table 18 either improved repression or improved sensitivity to inducer without compromising repressor function. Certain residues were indispensible to function such as R104, W105, and W174 as substitutions were not allowed. Other residue positions such as R138 and K177 were also flagged as critical since functional substitutions were extremely limited. […]
row,Molecule,IND = induction with 200 ppb Cs at 24 hrs (blue colony color intensity thru ImageJ analysis)
1,B1,1.4
2,B2,0.3
3,B3,0.3
4,B4,12.9
5,B5,0.6
6,B6,0.5
7,B7,10.8
8,B8,0.7
9,B9,1.5
10,B10,2.1
11,B11,1.5
12,B12,8.6

# Same assay, conditions: library L8 hits; M9 Xgal colony assay; ratio IND (200 ppb Cs, 24 hrs) / REP (48 hrs)
row,Molecule,F. IND = fold induction: induction with 200 ppb Cs at 24 hrs/repression at 48 hrs
1,B1,3.4
2,B2,2.6
3,B3,3.3
4,B4,2.7
5,B5,2.4
6,B6,3.3
7,B7,2.5
8,B8,2.9
9,B9,2.5
10,B10,2.7
11,B11,2.7
12,B12,3.1

# Same assay, conditions: library L8 hits; M9 Xgal colony assay; without inducer; 48 hrs
row,Molecule,REP = repression measured without inducer after 48 hrs (blue colony color intensity thru ImageJ analysis)
1,B1,0.4
2,B2,0.1
3,B3,0.1
4,B4,4.8
5,B5,0.3
6,B6,0.1
7,B7,4.4
8,B8,0.2
9,B9,0.6
10,B10,0.8
11,B11,0.6
12,B12,2.8

# Tested on: E. coli assay strain Km3
# Test: Liquid B-galactosidase assays of chlorsulfuron repressor hits (induction and repression)
# Conditions: CsL4.2 hits; liquid B-galactosidase assay, 20 ppb Cs
# Description: In order to create new diversity for shuffling the top clone from CsL3 was subjected to error prone PCR mutagenesis using Mutazyme (Stratagene). The mutated PCR product encoding the CsR ligand binding domain was inserted into library expression vector pVER7334 as a Sac1 to Asc1 fragment, transformed into library strain Km3 and plated onto LB+40 ug/ml Kanamycin and 50 ug/ml Carbenecillin. Approximately 10,000 colonies were then replica plated onto M9 Xgal assay medium +/−20 ppb Cs. Putative hits were then re-arrayed and replica plated onto the same assay medium. Performance was gauged by the level of blue colony color after 24 hrs incubation on inducer (induction) and 72 hrs incubation without inducer (repression). The top hits were then subjected to liquid B-galactosidase assays for quantitative assessment (Table 21).
# Seventh round library CsL4.2 was designed based on the best diversity from CsL3 and CsL3-MTZ library screens (Table 14). The library was assembled with oligonucleotides shown below in Table 22. The first and last primers were used as rescue primers. CsL4.2 included a C-terminal 6×His-tag extension to facilitate protein purification. The library was assembled and cloned into vector pVER7334 Sac1 to Asc1, transformed into library assay strain Km3 and plated onto LB+40 ug/m1 Kanamycin and 50 ug/ml carbenecillin. Approximately 8,000 colonies were re-arrayed into 384-well format and replica plated onto M9 Xgal assay medium +/−2 ppb Cs. Putative hits were re-arrayed in 96-well format onto the same media for re-testing. Confirmed hits were then tested for induction and repression aspects in liquid culture using B-galactosidase assays.
# Mutagenesis reactions were transformed into E. coli assay strain Km3 and plated onto LB+50 ug/ml Carbenecillin. Colonies were then re-arrayed into 384 well format and replica plated onto M9 Xgal assay medium +/−5 ppb Chlorsulfuron. Putative hits were then re-arrayed and analyzed by B-galactosidase assays relative to the parent clones (FIG. 10).
row,Molecule,IND = induction with 20 ppb CS (B-galactosidase)
1,B13,4.0

# Same assay, conditions: CsL4.2 hits; liquid B-galactosidase assay, no inducer
row,Molecule,REP = repression in absence of inducer (B-galactosidase)
1,B13,0.2
